For the experiment, the target named is 6xHis-SpaK G392A (C-terminal half of SpaK) (Bacillus subtilis).

This note sets out measurements from publication PMC2686270.

For the substance “6xHis-SpaK H247Q (C-terminal half of SpaK) (domain or fragment)”, the autophosphorylation restored by combining the two SpaK mutants, each inactive alone (intermolecular complementation; 32P-ATP, SDS-PAGE and autoradiography, Fig. 5B lane 6) (% of wild type) was 25.
